This note sets out measurements from patent publication US20240052042A1 (Novartis, published 2024).

The chains are these.
T1: rat NPR1 (rNPR1) (rat, UniProt P18910 29-469, limits assumed)
T1 construct: Soluble antigen
T1 sequence: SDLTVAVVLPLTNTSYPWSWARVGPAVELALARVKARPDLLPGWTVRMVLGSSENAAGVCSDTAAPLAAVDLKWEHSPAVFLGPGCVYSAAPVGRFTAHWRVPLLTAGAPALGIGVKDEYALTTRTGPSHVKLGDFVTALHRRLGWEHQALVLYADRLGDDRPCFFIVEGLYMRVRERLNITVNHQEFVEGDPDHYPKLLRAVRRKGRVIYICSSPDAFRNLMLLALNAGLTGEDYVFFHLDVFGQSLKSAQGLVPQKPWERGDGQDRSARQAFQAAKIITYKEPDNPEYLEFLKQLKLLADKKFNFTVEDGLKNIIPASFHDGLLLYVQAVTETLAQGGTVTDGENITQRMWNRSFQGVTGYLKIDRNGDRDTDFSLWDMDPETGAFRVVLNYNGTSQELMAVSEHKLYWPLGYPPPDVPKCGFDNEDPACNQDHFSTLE

T2: rNPR1-ANP complex (rat, UniProt P01160 124-151 (human entry), limits assumed)
T2 construct: rNPR1 antigen in the presence of ANP; also called rNPR1 + 100 nM ANP
T2 sequence: T1 sequence
T2 sequence (peptide): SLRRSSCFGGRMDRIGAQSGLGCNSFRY

T3: hNPR1-ANP complex (human, UniProt P01160 124-151, limits assumed)
T3 construct: hNPR1 antigen in the presence of ANP; also called hNPR1 + 100 nM ANP
T3 sequence: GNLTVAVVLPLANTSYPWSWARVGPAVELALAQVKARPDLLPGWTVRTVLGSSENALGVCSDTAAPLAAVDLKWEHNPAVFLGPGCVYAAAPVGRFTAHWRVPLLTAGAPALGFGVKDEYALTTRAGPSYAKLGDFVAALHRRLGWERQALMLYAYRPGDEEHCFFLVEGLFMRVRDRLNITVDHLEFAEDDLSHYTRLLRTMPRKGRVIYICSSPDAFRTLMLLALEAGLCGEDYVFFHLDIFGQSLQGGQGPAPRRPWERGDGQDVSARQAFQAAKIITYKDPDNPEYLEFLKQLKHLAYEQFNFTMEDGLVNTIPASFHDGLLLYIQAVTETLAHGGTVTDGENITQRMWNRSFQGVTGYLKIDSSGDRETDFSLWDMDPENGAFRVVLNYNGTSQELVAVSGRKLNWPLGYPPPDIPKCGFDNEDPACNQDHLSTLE
T3 sequence (peptide): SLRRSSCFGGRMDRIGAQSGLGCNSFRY

T4: human Natriuretic Peptide Receptor 1 (hNPR1) (human, UniProt P16066 33-473, limits assumed)
T4 construct: pannings used NPR1-hFc; also called NPR1-hFc
T4 sequence: T3 sequence

B1: XX01 (FabCys format) (Fab, V domains shown)
VH: EVQLLESGGGLVQPGGSLRLSCAASGFTFNTHYIHWVRQAPGKGLEWVSSISSSGQSTYYADSVKGRFTISRDNSKNTLYLQMNSLRAEDTAVYYCARERGYVYYHMFDPWGQGTLVTVSS
VL: DIVLTQSPATLSLSPGERATLSCRASQSITRNYLAWYQQKPGQAPRLLIYGASSRATGIPARFSGSGSGTDFTLTISSLEPEDFAVYYCQQHSMYPRTFGQGTKVEIK
notes: Monovalent FabCys
B2: XX08 (FabCys format) (Fab, V domains shown)
VH: B1 VH with S52G, S53G, S54Q, Q56G, S57M, Y59L
VL: B1 VL
notes: Monovalent FabCys
B3: XX04 (FabCys format) (Fab, V domains shown)
VH: QVQLLESGGGLVQPGGSLRLSCAASGFTFSSYWMNWVRQAPGKGLEWVSAISSDGSYTYYADSVKGRFTISRDNSKNTLYLQMNSLRAEDTAVYYCARDRYSMIYSYGAGAFDYWGQGTLVTVSS
VL: DIQMTQSPSSLSASVGDRVTITCRASQGISSYLAWYQQKPGKAPKLLIYTASTLQSGVPSRFSGSGSGTDFTLTISSLQPEDFATYYCQQEWVKPRTFGQGTKVEIK
notes: Monovalent FabCys
B4: XX12 (FabCys format) (Fab, V domains shown)
VH: B3 VH
VL: B3 VL with E91I, V93M, K94A
notes: Monovalent FabCys
B5: XX07 (FabCys format) (Fab, V domains shown)
VH: B3 VH
VL: B3 VL with E91I, V93T, K94V
notes: Monovalent FabCys
B6: XX03 (FabCys format) (Fab, V domains shown)
VH: B3 VH with Q1E, A50V, S52E, D54K, S56N, T58I, Y59F
VL: B3 VL with Q89M, E91S, W92Y, V93E
notes: Monovalent FabCys
B7: XX06 (FabCys format) (Fab, V domains shown)
VH: B3 VH
VL: B3 VL with E91T, V93R
notes: Monovalent FabCys

Where a chain is given by its changes, count along the chain named.

The target of one assay is T1, rat NPR1 (rNPR1). As to the kind of experiment: SET, FabCys.
As for B1, the “rat/human KD ratio” value is < 5.
On the same count and under the same terms, with B2 the figure was < 5; with B3, < 5; with B4, < 5.
The same measure, in the same setting: with B5 the figure was < 5.
The same measure, in the same setting: next, B6: < 5; B7: < 5.

The next assay addresses T2, rNPR1-ANP complex. As to the kind of experiment: SET, FabCys.
Turning to B1, binding was characterised by a dissociation constant (Kd) of 500 pM.
For the molecule B2, the affinity, expressed as Kd, was 200 pM.
Same read-out and setting: next, B3: 300 pM.
Same read-out and setting: next, B4: 500 pM; B5: 500 pM; B6: 100 pM.
Same read-out and setting: next, B7: 300 pM.

A further assay addresses T3, hNPR1-ANP complex. The assay can be described thus: SET, FabCys.
Consider B1, for which the dissociation constant (Kd) (commonly the free concentration of one partner at which half of the binding sites on the other are occupied at equilibrium, for simple one-to-one binding) is 300 pM. This counts as sub-nanomolar.
In turn, B2 returned a Kd of 300 pM.
On the same count and under the same terms, next, B3: 100 pM; B4: 200 pM.
For the molecule B5, the Kd was determined as 200 pM.
The same measure, in the same setting: next, B6: 200 pM.
The molecule B7 registered a Kd of 100 pM.

The target of a further assay is T1, rat NPR1 (rNPR1). As to the kind of experiment: SET, FabCys. This is another data set of the same source.
In turn, B1 came in with a Kd of 1400 pM.
Still for that read-out and setting: next, B2: 1800 pM.
Consider B3, for which the Kd amounted to 3300 pM.
As to B4, the Kd amounted to 3000 pM.
In turn, B5 showed a Kd of 2900 pM.
For the molecule B6, binding was characterised by a dissociation constant (Kd) of 1100 pM. This Kd is about 2.6-fold lower than that of the molecule before.
Same read-out and setting: next, B7: 2300 pM.

In a further assay the target is T4, human Natriuretic Peptide Receptor 1 …. The assay can be described thus: SET, FabCys.
The molecule B1 yielded a Kd of 43000 pM.
Molecule B2 returned a Kd of 46000 pM.
Same read-out and setting: with B3 the figure was 32000 pM; with B4, 16000 pM; with B5, 21000 pM.
Still for that read-out and setting: with B6 the figure was 22000 pM; with B7, 10000 pM.
